Experiments:
CD3 epsilon chain (CD3e) [1] = biological target: T1, CD3 epsilon chain (CD3e) (human, UniProt P07766 23-207); assay: FACS on CD3-positive T cells
T1 construct: whole, on cells; also called CD3 antigen

CD3 epsilon chain (CD3e) [2] = biological target: T1, CD3 epsilon chain (CD3e); assay: FACS

T1 sequence (P07766 23-207): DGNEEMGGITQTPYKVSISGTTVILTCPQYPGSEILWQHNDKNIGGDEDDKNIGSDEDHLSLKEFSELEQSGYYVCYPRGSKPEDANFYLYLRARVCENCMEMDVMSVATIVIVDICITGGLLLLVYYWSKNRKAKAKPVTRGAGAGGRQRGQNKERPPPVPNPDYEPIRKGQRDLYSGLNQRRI

B1: PLAP h4-CD3e bispecific antibody (FIG. 1A structure) (bispecific antibody)
light: DIQMTQSPSSLSASVGDRVTITCRASENIYSYVAWYQQKPGKAPKLLIYNAKSLASGVPSRFSGSGSGTDFTLTISSLQPEDFATYYCQHHYVSPWTFGGGTKLEIKRTVAAPSVFIFPPSDEQLKSGTASVVCLLNNFYPREAKVQWKVDNALQSGNSQESVTEQDSKDSTYSLSSTLTLSKADYEKHKVYACEVTHQGLSSPVTKSFNRGEC
chain: QAVVTQEPSLTVSPGGTVTLTCGSSTGAVTTSNYANWVQEKPGQAFRGLIGGTNKRAPGTPARFSGSLLGGKAALTLSGAQPEDEAEYYCALWYSNLWVFGGGTKLTVLSSASTKGPSVFPLAPSSKSTSGGTAALGCLVKDYFPEPVTVSWNSGALTSGVHTFPAVLQSSGLYSLSSVVTVPSSSLGTQTYICNVNHKPSNTKVDKKVEPKSC
heavy 1: not shown
heavy 2: QVQLQESGPGLVKPSETLSLTCTVSGGSITSYGVSWIRQPPGKGLEWIGVIWEDGSTNYHSALISRVTISVDTSKNQFSLKLSSVTAADTAVYYCARPHYGSSYVGAMEYWGAGTTVTVSSTKGPSVFPLAPSSKSTSGGTAALGCLVKDYFPEPVTVSWNSGALTSGVHTFPAVLQSSGLYSLSSVVTVPSSSLGTQTYICNVNHKPSNTKVDKKVEPKSCDKTHTCPPCPAPEAAGGPSVFLFPPKPKDTLMISRTPEVTCVVVDVSHEDPEVKFNWYVDGVEVHNAKTKPREEQYNSTYRVVSVLTVLHQDWLNGKEYKCKVSNKALGAPIEKTISKAKGQPREPQVCTLPPSRDELTKNQVSLSCAVKGFYPSDIAVEWESNGQPENNYKTTPPVLDSDGSFFLVSKLTVDKSRWQQGNVFSCSVMHEALHNHYTQKSLSLSPGK
notes: Two PLAP Fab arms and one CD3e crossover Fab; knob-into-hole human IgG Fc with P329G, L234A, L235A; also called PLAP h4-CD3 antibody; PLAP h4-Cd3 antibody
B1: binds (CD3 epsilon chain (CD3e) [1]).

B2: PLAP h4-CD3e bivalent antibody (PBM0015), FIG. 1B structure (bispecific antibody)
light: B1 light
heavy 1: not shown
heavy 2: B1 heavy 2
notes: Two PLAP Fab arms; the CD3 scFv is attached to the C-terminal end of CH3 of the knob chain; also called bivalent PLAP h4-CD3 Ab; bivalent humanized PLAPh4-CD3 antibody
B2: binds (CD3 epsilon chain (CD3e) [2]).

Source: US20220348688A1 (PROMAB BIOTECHNOLOGIES, published 2022)
